The values below come from PMC12915131, “Balanced Expression of the Diiron Oxygenase BioE Is Essential for Biotin Homeostasis in Elizabethkingia meningoseptica”.

The target of this data set is BioL (EmBioL), MocR-family repressor (Elizabethkingia meningoseptica, UniProt A0A1T3FDC7 1-495). Kind of data set: EMSA; PLP in protein elution buffer; 5 mM Mg2+; EMSA: 20 mM Tris-HCl pH 8.0, 50 mM KCl, 5 mM MgCl2, 1 mM DTT, 5% glycerol, room temperature 20 min; 5% native PAGE, GelRed stain. The note with it: protein: recombinant; tags: tag-free after Ulp1 cleavage of GST-SUMO; chain copies: 2; blunt. In general terms: A gel shift assay detects complexes by their altered migration in electrophoresis.

B1: PbioB probe (dsDNA)
DNA 1: TGCTTTTATCAAACTCATGTGTAATTACTCTGGTAATCTATATGATTAAGATTTAGAAG
DNA 2: CTTCTAAATCTTAATCATATAGATTACCAGAGTAATTACACATGAGTTTGATAAAAGCA
Regarding B1, the binding result is on record as “binds”.

B2: PbioE probe (dsDNA)
DNA 1: TTTTAAATCTGGTACCATTTAAGGTCCGGCAAGATAATAATTTTGCTTCAAAAAAGAG
DNA 2: CTCTTTTTTGAAGCAAAATTATTATCTTGCCGGACCTTAAATGGTACCAGATTTAAAA
Regarding B2, the binding result is reported as “binds”.
